± gives the standard deviation.
Assay: protein stability index of a GFP-peptide fusion (GPS, HEK-293T) (PSI 1-6); higher = more stable
[1] = treatment: DMSO, c terminus: a fixed tail appended
[2] = treatment: MLN4924 1 uM, 8 h, c terminus: a fixed tail appended
[3] = treatment: DMSO, c terminus: native
[4] = treatment: MLN4924 1 uM, 8 h, c terminus: native
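Note: 24-mer peptide tiles fused after GFP, lentivirally expressed, FACS-sorted into six equal bins by GFP/DsRed ratio, decoded by Illumina sequencing, PSI is the read-weighted mean bin number.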

Row | Sequence | protein stability index [1] | protein stability index [2] | protein stability index [3] | protein stability index [4]
1 | KLSFRARAYGFRGPGPQLRRGWRP [CHGA] | 3.01 ± 0.2 | 3.08 ± 0.29 |  | 
2 | SPPGSTKRRKSMSGASPKESTNPE [CDC25A] | 5.47 ± 0.11 | 5.4 ± 0.21 |  | 
3 | YLESETETTEAIDDEGWLHSGDLG [ACSBG2] | 5.25 ± 0.14 | 5.497 ± 0.035 |  | 
4 | RVRGLGLPKLYLPTGPRRGRDELG [CDKN1A] | 3.33 ± 0.58 | 3.43 ± 0.057 |  | 
5 | DDIRKGIVLLEELLPKGSKEEQRD [FIS1] | 4.63 ± 0.43 | 4.6 ± 0.27 |  | 
6 | KKFQSEKAAGSVSKSTQFEYAWCL [FIS1] | 2.12 ± 0.22 | 2.33 ± 0.13 |  | 
7 | MVGGLKRKHSDLEEEEERWEWSPA [SERTAD3] | 4.23 ± 0.4 | 4.56 ± 0.16 |  | 
8 | KVMIHPDPERRPSAMALVKHSVLL [WEE1] | 2.22 ± 0.14 | 2.34 ± 0.57 |  | 
9 | AAARPSSCRRKQEDDRDGLLAERE [TMEM106C] | 5.18 ± 0.25 | 5.3 ± 0.34 |  | 
10 | QALGIPATECEFVGSLPVIVVGRL [LPCAT4] | 2.38 ± 0.58 | 2.29 ± 0.66 |  | 
11 | RTLASGRLLSYRGERVAARGYWGD [DNAAF3] | 2.96 ± 0.17 | 3.08 ± 0.19 |  | 
12 | KKKKKQKNKKSSTGEASENGLEDI [TCF25] | 5.04 ± 0.097 | 4.49 ± 0.25 |  | 
13 | ALQAAAHASVDIKDVLDFYKQWKE [SMG5] | 3.19 ± 0.14 | 3.37 ± 0.31 |  | 
14 | LVVALDVDATLEHVQDPQNTVKVQ [INTS4] | 3.03 ± 0.14 | 3.21 ± 0.2 |  | 
15 | FMGTISDVKTNVQLLKGRVDNIST [CD207] | 3.02 ± 0.22 | 3.12 ± 0.32 |  | 
16 | AGSKVKDMAGDWHWALRVTPGLGV [SPNS1] | 2.07 ± 0.28 | 2.1 ± 0.26 |  | 
17 | ESLVPFIVNDNITNNFFRFLCMT [DYNC2LI1] |  |  | 3.91 ± 0.45 | 2.63 ± 0.67
18 | QYIISDLASARIIEQDAVVPSEWL [GMCL1] | 2.76 ± 0.24 | 2.76 ± 0.25 |  | 
19 | ENCLSASAAQTDPTTGYRRLLRFS [LOXL2] | 3.34 ± 0.36 | 3.35 ± 0.4 |  | 
20 | HGQENIVRILLRRGVDVSLQGKDA [RIPK4] | 2.5 ± 0.087 | 3.13 ± 0.24 |  | 
21 | KSDSPTGDVLLDETLKHIKATEPT [GOLPH3L] | 5.16 ± 0.27 | 5.26 ± 0.15 |  | 
22 | YNLSPEADESVLWQLFGPFGAVTN [ELAVL3] | 2.55 ± 0.28 | 2.51 ± 0.091 |  | 
23 | SPFSGSLHAPPAFYSTSSGLANGL [VENTX] | 2.89 ± 0.048 | 2.96 ± 0.17 |  | 

Row | Sequence | protein stability index [1] | protein stability index [2] | protein stability index [3] | protein stability index [4]
24 | NKWTVQYNVSPLSWNVAVKFLMAR [PTPN9] | 2.47 ± 0.54 | 2.15 ± 0.38 |  | 
25 | DFRTKYETELSLRQLVEADINGLR [KRT36] | 3.15 ± 0.15 | 3.38 ± 0.17 |  | 
26 | NYQVFQKVTDHATTALLHYQLPQM [MED27] | 2.52 ± 0.21 | 2.25 ± 0.24 |  | 
27 | SFRKFRYGYNNVVTIPAGATHILV [ADAMTS4] | 2.64 ± 0.28 | 2.99 ± 0.51 |  | 
28 | YDDVRRCCSSADICPKCWTLMTMA [PRIM1] | 3.34 ± 0.17 | 3.4 ± 0.36 |  | 
29 | RTDLEMQIEGLNEELAYLKKNHEE [KRT15] | 4.85 ± 0.3 | 4.77 ± 0.22 |  | 
30 | PAPSPAKEERKTEVVMNSQQTPVG [PALM] | 5.52 ± 0.19 | 5.46 ± 0.13 |  | 
31 | GPVPGTPGLPGSTGNPKSEEPEVP [SPNS1] | 5.55 ± 0.2 | 5.3 ± 0.34 |  | 
32 | ACLIVMFLPEKKDTGVFAVVNSHS [SLC22A15] | 3.22 ± 0.56 | 2.12 ± 0.19 |  | 
33 | IKEVIFMSDKYHDSDEATAARLLF [DCTD] | 2.57 ± 0.27 | 2.62 ± 0.32 |  | 
34 | LWRYRTITFSGRPSRVHASEVESA [FBXO39] | 2.79 ± 0.27 | 3 ± 0.33 |  | 
35 | AHFSPFLYYQSQELPNGSVKEAPA [PDZK1] | 3.45 ± 0.13 | 3.33 ± 0.13 |  | 
36 | EVNSRCYQPEPFACGIEHCSVHYV [FBXO34] | 2.58 ± 0.18 | 2.33 ± 0.67 |  | 
37 | FGDLSLSLVTVGKHLTARVLCLIV [POMT2] | 3.39 ± 0.76 | 2.71 ± 0.48 |  | 
38 | QGEYSRKLEERFMTLAANHELMLR [CCDC89] | 3.15 ± 0.18 | 3.18 ± 0.25 |  | 
39 | YTVSATAPGYDPETVTVTVGPAEP [CPN1] | 3.61 ± 0.13 | 3.83 ± 0.39 |  | 
40 | FKLLDKNSSGDIGKKEIKPFKRFL [SMOC2] | 2.54 ± 0.42 | 3.01 ± 0.43 |  | 
41 | LGKLEATIKSLSAELLKANEIIKK [SASS6] | 2.44 ± 0.34 | 2.68 ± 0.16 |  | 
42 | SACTVALHIFQLNEDGPSSENLEE [TRIP13] | 3.23 ± 0.2 | 3.33 ± 0.19 |  | 
43 | TRRVTFEADENENITVVKGIRLSE [CHCHD3] | 4.29 ± 0.13 | 4.47 ± 0.23 |  | 
44 | DHSFSLELGSEVDITEGDRKPDYT [ATF4] | 5.2 ± 0.29 | 5.34 ± 0.18 |  | 
45 | ESYESMELACPAERSGHVAVSDGR [KLHDC2] | 5.08 ± 0.069 | 5.09 ± 0.17 |  | 
46 | RLQVVKLLAKMFGAKDSELASQNK [PDS5B] | 2.11 ± 0.34 | 2.7 ± 0.075 |  | 

Row | Sequence | protein stability index [1] | protein stability index [2] | protein stability index [3] | protein stability index [4]
47 | VLRFLPAFVRMKQLIEEGYVGEPL [GFOD1] | 2.2 ± 0.25 | 2.17 ± 0.13 |  | 
48 | HDVRLNGSAAGHVLVKDNGLGCKD [TENT5C] | 4.88 ± 0.38 | 4.92 ± 0.16 |  | 
49 | ILKRLLKEQHLWDVDLLDSKVIEI [DLC1] | 2.44 ± 1 | 2.02 ± 0.68 |  | 
50 | LIVPFGLLYSEVTASSLVKINLQG [ADD1] | 3.03 ± 0.47 | 2.88 ± 0.36 |  | 
51 | VYPRPPEPREFSSRNFGVRNQGNF [ZC2HC1C] | 3.24 ± 0.15 | 3.24 ± 0.29 |  | 
52 | ATTAATAAATTTTTTSAATATTAP [SNAP91] | 5.36 ± 0.22 | 5.52 ± 0.22 |  | 
53 | WNITKLSIEYDSEPFGKERDAAIK [CRY1] | 2.9 ± 0.29 | 2.9 ± 0.28 |  | 
54 | EEKKPGELKRLVESRRQQILREFE [TRIM39] | 4.43 ± 0.55 | 4.59 ± 0.22 |  | 
55 | AEHWKHKKEESGRERKKNWGGQED [PBXIP1] | 5.24 ± 0.37 | 4.96 ± 0.4 |  | 
56 | IIKQLQKGVQQKRPSEAQSVILRR [DENND6A] | 3.08 ± 0.2 | 2.9 ± 0.14 |  | 
57 | TEYIESPDVENEVKRLLRSDAEAV [TAF7L] | 4.97 ± 0.33 | 5.03 ± 0.22 |  | 
58 | ESIRRAQVSQVKGAARLALLQGAG [FCHSD1] | 3.45 ± 0.12 | 3.36 ± 0.52 |  | 
59 | IKRGDILPPEKGREVAKELGLPYY [RHOBTB1] | 3.2 ± 0.22 | 3.37 ± 0.39 |  | 
60 | IDYYTETKILQERAVLGANDPEKN [NSDHL] | 4.76 ± 0.22 | 5.02 ± 0.46 |  | 
61 | DNEDSELNGDYGENIYPYEEDKDE [MIA2] | 5.37 ± 0.24 | 4.86 ± 1.1 |  | 
62 | LETNQQHFHALCHSLLVSTHVPR [M1AP] |  |  | 2.48 ± 0.43 | 3.13 ± 0.9
63 | VLAEGDNASRSLYPDAEDPQLGLD [PSD2] | 5.52 ± 0.25 | 5.34 ± 0.15 |  | 
64 | VAAALRYLQIFATRRSCIDESQIS [FAM189A2] | 2.37 ± 0.37 | 2.41 ± 0.17 |  | 
65 | PASPERDYSPYYKTIEELRDKILT [KRT13] | 3.349 ± 0.006 | 3.45 ± 0.31 |  | 
66 | ERSVVTRDIRCSEDEKLCDPNTRP [ADAMTSL2] | 5.06 ± 0.31 | 5.41 ± 0.27 |  | 
67 | KVQNECPGITRVYSIGRSVEGRHL [CPN1] | 3.08 ± 0.22 | 3.29 ± 0.5 |  | 
68 | GPRVGEALVSHPEVPLISFTGSQP [ALDH8A1] | 3.77 ± 0.34 | 4.09 ± 0.31 |  | 
69 | PEASDQEEHLSPLDFLHSANFSLG [RNF180] | 4.66 ± 0.17 | 4.64 ± 0.36 |  | 

Row | Sequence | protein stability index [1] | protein stability index [2] | protein stability index [3] | protein stability index [4]
70 | RSWFPSAPGSASSSKVSGVLKKLA [YJU2B] | 2.61 ± 0.27 | 2.5 ± 0.38 |  | 
71 | VLEGPAPWGFRLQGGKDFNVPLSI [PDLIM7] | 2.31 ± 0.12 | 2.44 ± 0.17 |  | 
72 | RMLMKRLDVTVQSFGWSDRAKVKT [FAM98B] | 2.48 ± 0.34 | 2.34 ± 0.34 |  | 
73 | DEEEDFFLRGPSGPRFGPRNDKIK [VAMP4] | 4.53 ± 0.26 | 4.62 ± 0.26 |  | 
74 | RVLQNLLTIEERYLPQCSYFKCVQ [CCND2] | 3.08 ± 0.22 | 2.69 ± 0.57 |  | 
75 | DTDKLLNSASDPSLKDGLSDSDSE [PSD2] | 5.45 ± 0.36 | 5.57 ± 0.074 |  | 
76 | NEHSAHCPHTPEFSVTGGTEEKSS [RPAIN] | 5.44 ± 0.24 | 5.28 ± 0.15 |  | 
77 | RQLALPATEQAATQESTFQELCEG [NOP53] | 5.12 ± 0.16 | 5.22 ± 0.21 |  | 
78 | PTGLLALQQIADFMTTNVPNVYPA [ADD1] | 2.1 ± 0.47 | 2.14 ± 0.25 |  | 
79 | SDGILRGNGTGYLPGRGRVLSSWS [RHOBTB2] | 3.42 ± 0.2 | 3.26 ± 0.3 |  | 
80 | FCPLSLWRWQLYAAQSTKSPWNFL [CLPTM1] | 2.66 ± 0.62 | 2.9 ± 0.51 |  | 
81 | ENQEKTEDQYEENSHLTSVPHWIN [ETS2] | 4.97 ± 0.21 | 4.95 ± 0.22 |  | 
82 | NHGLVSVGESVEEAFYYIHNLVVA [ADD1] | 2.24 ± 0.31 | 2.1 ± 0.58 |  | 
83 | WREFHYIQSKLGIVSLLLGTIHAL [STEAP1] | 2.96 ± 0.56 | 3.15 ± 0.69 |  | 
84 | CASPVTGPGSKRDAHFCAVCSDYA [ESR2] | 3.08 ± 0.22 | 3.16 ± 0.29 |  | 
85 | YILDNETNFVVQVSVFIGVLIDLW [CLPTM1] | 2.74 ± 0.77 | 2.59 ± 0.7 |  | 
86 | LGKGAFSVVRRCVKVLAGQEYAAK [CAMK2A] | 2.61 ± 0.4 | 2.38 ± 0.61 |  | 
87 | VTSTSQSPHSPDSSQSSLAQEEEE [DDIT3] | 5.53 ± 0.1 | 5.64 ± 0.12 |  | 
88 | PLPESLASLHPSVSPGSPPPPLPN [PLAGL1] | 5.01 ± 0.27 | 4.95 ± 0.16 |  | 
89 | TLNILLYEAQDGRGPDNALLEATG [KCTD10] | 2.92 ± 0.21 | 3.29 ± 0.31 |  | 

From the supplement of paper PMC10567573
